# Experimental data as given in patent US12312412 (dated 2025).
# Biological target: MAGEB2 peptide … / HLA-A*02:01 / b2m (human)
# Assay: FACS
row,Binder,Kd
1,"MA 09-E2 CC (V8T) (antibody, V domains shown) VH: EVQLVESGGGLVQPGGSLRLSCAASGFTFSNAWMSWVRQAPGKCLEWVGRIKSKTYGGTTDYAAPVKGRFTISRDDSKNTLFLQMNSLKTEDTAVYYCTTPSYSGSYYNYFSVMDVWGQGTTVTVSS VL: DIQMTQSPSSLSASVGDRVTITCRTSQSISSYLNWYQQKPGRAPKLLIFAASSLQGGVPSRFSGSGSGTDFTLTISSLQPEDFATYYCQQSYSSPFTFGCGTKVEIK",0.7 nM
2,"MA 09-H10 CC (B6N) (antibody, V domains shown) VH: QITLKESGPTLVKPTQTLTLTCTFSGFSFTTHKMGVDWIRQPPGKCLEWLALIYWNDDKRYSPSLQSRLTITKDTSKNQVVLTMTNMDPVDTATYYCAYRRYNWNYENWFDPWGQGTLVTVSS VL: DIQMTQSPSSLSASVGDRVTITCQASQDISNYLNWYQQKPGKAPKLLIYAASSLQSGVPSRFSGRGSGTDFTLTISSLQPEDFATYYCQQSYTPPTTFGCGTKVEIK",0.6 nM
3,"MA 09-F12 CC (D1U) (antibody, V domains shown) VH: QITLKESGPALVKPTQTLTLTCTFSGFSFTTHKMGVDWIRQPPGKCLEWLALIYWNDDKRYSPSLQSRLTITKDTSKNQVVLTMTNMDPVDTATYYCAYRRYNWNYENWFDPWGQGTLVTVSS VL: DIQMTQSPSSLSASVGDRVTITCQASQDISNYLNWYQQKPGKAPKLLIYAASSLQSGVPSRFSGRGSGTDFTLTISSLQPEDFATYYCQQSYYYPTLFGCGTKVEIK",0.5 nM
4,"MA 09-H11 CC (I8L) (antibody, V domains shown) VH: QITLKESGPTLVKPTQTLTLTCTFSGFSFTTHKMGVDWIRQPPGKCLEWLALIYWNDDKRYSPSLQSRLTITKDTSKNQVVLTMTNMDPVDTATYYCAYRRYNWNYENWFDPWGQGTLVTVSS VL: not shown",0.5 nM
5,"MA 09-F11 CC (L6Q) (antibody, V domains shown) VH: QITLKESGPMLVKPTQTLTLTCTFSGFSFTTHKMGVDWIRQPPGKCLEWLALIYWNDDKRYSPSLQSRLTITKDTSKNQVVLTMTNMDPVDTATYYCAYRRYNWNYENWFDPWGQGTLVTVSS VL: DIQMTQSPDSLSASVGDRVTITCQASQDISNYLNWYQQKPGKAPKLLIYAASSLQSGVPSRFSGSGSGTDFTLTISSLQPEDFATYYCQQSYMWPTIFGCGTKVEIK",0.6 nM
6,"MA 03-G10_AS CC (N3H) (antibody, V domains shown) VH: EVQLLESGGGLVQPGGSLRLSCAASGFTFSSYAMSWVRQAPGKCLEWVSAISGSGGGTYYAASVKGRFTISRDNSKNTLYLQMSSLRAEDTAVYYCATGKGVHLGFDYWGQGTLVTVSS VL: SYVLTQPPSVSVAPGQTARITCGGNNIGSKSVHWYQQKPGQAPVMVVYDDNDRPSGIPERFSGSNSGNTATLTISRVEAGDEADYYCQVWDYSGQRQVFGCGTKLTVL",0.9 nM
7,"MA 03-D8 AS CC (L7E) (antibody, V domains shown) VH: EVQLLESGGGLVQPGGSLRLSCAASGFTFSSHAMSWVRQAPGKCLEWVSTISGSGGGTYYAASVKGRFTISRDNSKNTLYLQMNSLRAEDTAVYYCATGKGVHLGFDYWGQGTLVTVSS VL: SYVLTQPPSVSVAPGQTARITCGGNNIGSKSVHWYQQKPGQAPVMVVYDDNDRPSGIPERFSGSNFGNTATLIISRVEAGDEADYYCQVWDYRTLDWVFGCGTKLTVL",0.5 nM

# The remaining binders from weak to strong by Kd, led by results:
row,Kd,Binder
1,76.8 nM,"MA SG-F28 CC (D9R) (antibody, V domains shown) VH: QVQLQESGPGLVKPSQTLSLTCTVSGDSISSNPYYWSWIRQHPGKCLEWIGYISYSGITNYNPSLKSRVTMSVDTSKNQFSLKLTSLTAADTAVYYCAREKMWFGVLNYYYGMDVWGQGTTVTVSS VL: DIVMTQTPLSLPVTPGEPASISCRSSQSLLHRSGYNYLDWYLQKPGQSPQLLIYLGSNRASGVPDRFSGSGSGTDFTLKISRVEAGDVGVYYCMQALQTPWTFGCGTKVEIK"
2,74.1 nM,"MA 88-B3-F9 CC (Y4E) (antibody, V domains shown) VH: QVQLVESGGGLVKPGGSLRLSCAASGFTFSDYYMSWIRQAPGKCLEWVSYISKSSYTVTYADAVKGRFTISRDNAKNSLYLQMNSLRAEDTAVYYCATYNYGHFDYWGQGTLVTVSS VL: SYVLTQPPSVSVAPGQTARITCGGNNIGSKSVHWYQQKPGQAPVLVVYDDADRPSGIPERFSGSNSGNTATLTISRVEAGDEADYYCQVWDASAGYGVVFGCGTKLTVL"
3,18.8 nM,"MA 81-B9 CC (U4L) (antibody, V domains shown) VH: QVQLQESGPGLVKPSETLSLTCTVSGDSISSSRYYWGWIRQPPGKCLEWIGSIYYSGSTYYNPSLKSRVTISVDTSKNQFSLKLSSVTAADTAVYYCARGIFGVITYFDYWGQGTLVTVSS VL: not shown"
4,1.2 nM,"MA 10-H1 CC (T9K) (antibody, V domains shown) VH: EVQLVESGGGLVQPGGSLRLSCAASGFTFSNAWMSWVRQAPGKCLEWVGRITSGIYGGTTDYAAPVKGRFTISRDDSKNTLYLQMNSLKTEDTAVYYCTTPSYSGSYYNYFSVMDVWGQGTTVTVSS VL: DIQMTQSPSSLSASVGDRVTITCRTSQSISSYLNWYQQKPGRAPKLLIFAASSLQSGVPSRFSGSGSGTDFTLTISSLQPEDFATYYCQQTYSMPFTFGCGTKVDIK"
5,0.9 nM,"MA 09-C7 CC (K9T) (antibody, V domains shown) VH: QVTLKESGPALVKPTQTLTLTCTFSGFSFTTHKMGVDWIRQPPGKCLEWLAEIHSEDDKRYSPSLQSRLTITKDTSKNQVVLTMTNMDPVDTATYYCAYRRYNWNYENWFDPWGQGTLVTVSS VL: DIQMTQSPSSLSASVGDRVTITCRASQSISNYFNWYQQKPGKAPKLLIYAASSLQSGVPSRFSGSGSGTDFTLTISSLQPEDFATYYCQQSYITPFTFGCGTKVEIK"
6,0.9 nM,"MA 98-G12_AS CC (Q4Z) (antibody, V domains shown) VH: EVQLLESGGGLVQPGGSLRLSCAASGFTFSSHAMSWVRQAPGKCLEWVSAISGSGGGTYNAASVKGRFTISRDNSKNTLYLQMNSLRAEDTAAYYCVTGKGVHLGFDYWGQGTLVTVSS VL: SYVLTQPPSVSVAPGQTARITCGGNNIGSKSVHWYQQKPGQAPVMVVYDDNDRPSGIPERFSGSNFGNTATLIISRVEAGDEADYYCQVWDYFSMTHVFGCGTKLTVL"
7,0.8 nM,"MA 09-G10 CC (C4K) (antibody, V domains shown) VH: QITLKESGPTLVKPTQTLTLTCTFSGFSFTTHKMGVDWIRQPPGKCLEWLAGIHIYDDKRYSPSLQSRLTITKDTSKNQVVLTMTNMDPVDTATYYCAYRRYNWNYENWFDPWGQGTLVTVSS VL: DIQMTQSPSSLSASVGDRVTITCQASQDISNYFNWYQQKPGKAPKLLIYAASSLQSGVPSRFSGSGSGTDFTLTISSLQPEDFATYYCQQSYITPFTFGCGTKVEIK"
8,0.7 nM,"MA 98-C7 CC (Y8P) (antibody, V domains shown) VH: EVQLLESGGGLVQPGGSLRLSCAASGFTFSSHAMSWVRQAPGKCLEWVSSISGSGGGTYYAASVKGRFTISRDNSKNTLYLQMNSLRAEDTAVYYCATGKGVHLGFDYWGQGTLVTVSS VL: SYVLTQPPSVSVAPGQTARITCGGNNIGSKSVHWYQQKPGQAPVMVVYDDNDRPSGIPERFSGSNSGNTATLTISRVEAGDEADYYCQVWDYSPLRHVFGCGTKLTVL"
9,0.6 nM,"MA 09-G11 CC (Y9Q) (antibody, V domains shown) VH: QITLKESGPMLVKPTQTLTLTCTFSGFSFTTHKMGVDWIRQPPGKCLEWLALIYWNDDKRYSPSLQSRLTITKDTSKNQVVLTMTNMDPVDTATYYCAYRRYNWNYENWFDPWGQGTLVTVSS VL: DIQMTQSPSSLSASVGDRVTITCRASQFISSYLNWYQQKPGKAPKLLIYAASSLQSGVPSRFSGRGSGTDFTLTISSLQPEDFATYYCQQSYQSPTTFGCGTKVEIK"
